In the RNAGym collection of RNA variant scans (doi:10.1093/molbev/msab373):

B1: Azoarcus group I ribozyme (parent)
chain: GUGCCUUGCGCCGGGAAACCACGCAAGGGAUGGUGUCAAAUUCGGCGAAACCUAAGCGCCCGCCCGGGCGUAUGGCAACGCCGAGCCAAGCUUCGGCGCCUGCGCCGAUGAAGGUGUAGAGACUAGACGGCACCCACCUAAGGCAAACGCUAUGGUGAAGGCAUAGUCCAGGGAGUGGCGAAAGUCACACAAACCGG

Variants of: B1
Experiment: reverse-splicing fitness (ratio to wild type); higher = more active; in vitro selection; Mg2+ level not given
How it was run: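 An in vitro group I ribozyme library with randomized positions was T7-transcribed and gel-purified. In triplicate, 10 pmol RNA in EPPS pH 7.5 was reacted with 50 pmoles of a 30-nt RNA substrate for 1 h at 37 °C across several added MgCl2 levels (1–48 mM), then stopped with EDTA. Products were reverse transcribed from a substrate-complementary primer, PCR-amplified and sequenced (HiSeq 4000). Fitness is a variant's read proportion after selection over that before, normalised to wild type.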

Variant | reverse-splicing fitness
GUGCCUUGCGCCGGGAAACCACGCAAGGGAUGGUGUCAAAUUCGGCGAAACCUAAGCGCCCGCCCGGGCGUAUGGCAACGCCGAGCCAAGCUUCGGCGCCUGCGCCGAUGAAGGUGUAGAGACUAGACGGCACCCACCUAAGGCAAACGGUAUGGUGAAGGCAUAGUCUAGGGAGGGGCGAAAGUCACACAAACCGG [C150G C169U U176G] | 0.00596
GUGCCUUGCGCCGGGAAACCACGCAAGGGAUGGUGUCAAAUUCGGCGAAACCUAAGCGCCCGCCCGGGCGUAUGGCAACGCCGAGCCAAGCUUCGGCGCCUGCGCCGAUGAAGGUGUAGAGACUAGACGGCACCCACCUAAGGCAAACGGUAUGGUGAAGGCAUAGUCCAGGGAGAGGCGAAAGUCACACAAACCGG [C150G U176A] | 0.219
GUGCCUUGCGCCGGGAAACCACGCAAGGGAUGGUGUCAAAUUCGGCGAAACCUAAGCGCCCGCCCGGGCGUAUGGCAACGCCGAGCCAAGCUUCGGCGCCUGCGCCGAUGAAGGUGUAGAGACUAGACGGCACCCACCUAAGGCAAACGGUAUGGUGAAGGCAUAGUCCAGGGAGCGGCGAAAGUCACACAAACCGG [C150G U176C] | 0.286
GUGCCUUGCGCCGGGAAACCACGCAAGGGAUGGUGUCAAAUUCGGCGAAACCUAAGCGCCCGCCCGGGCGUAUGGCAACGCCGAGCCAAGCUUCGGCGCCUGCGCCGAUGAAGGUGUAGAGACUAGACGGCACCCACCUAAGGCAAACGGUAUGGUGAAGGCAUAGUCCAGGGAGGGGCGAAAGUCACACAAACCGG [C150G U176G] | 0.0576
GUGCCUUGCGCCGGGAAACCACGCAAGGGAUGGUGUCAAAUUCGGCGAAACCUAAGCGCCCGCCCGGGCGUAUGGCAACGCCGAGCCAAGCUUCGGCGCCUGCGCCGAUGAAGGUGUAGAGACUAGACGGCACCCACCUAAGGCAAACGUUAUGGUGAAGGCAUAGUCCAGGGAGUGGCGAAAGUCACACAAACCGG [C150U] | 0.878
GUGCCUUGCGCCGGGAAACCACGCAAGGGAUGGUGUCAAAUUCGGCGAAACCUAAGCGCCCGCCCGGGCGUAUGGCAACGCCGAGCCAAGCUUCGGCGCCUGCGCCGAUGAAGGUGUAGAGACUAGACGGCACCCACCUAAGGCAAACGUUAUGGUGAAGGCAUAGUCAAGGGAGUGGCGAAAGUCACACAAACCGG [C150U C169A] | 0.0973
GUGCCUUGCGCCGGGAAACCACGCAAGGGAUGGUGUCAAAUUCGGCGAAACCUAAGCGCCCGCCCGGGCGUAUGGCAACGCCGAGCCAAGCUUCGGCGCCUGCGCCGAUGAAGGUGUAGAGACUAGACGGCACCCACCUAAGGCAAACGUUAUGGUGAAGGCAUAGUCAAGGGAGAGGCGAAAGUCACACAAACCGG [C150U C169A U176A] | 0.0259
GUGCCUUGCGCCGGGAAACCACGCAAGGGAUGGUGUCAAAUUCGGCGAAACCUAAGCGCCCGCCCGGGCGUAUGGCAACGCCGAGCCAAGCUUCGGCGCCUGCGCCGAUGAAGGUGUAGAGACUAGACGGCACCCACCUAAGGCAAACGUUAUGGUGAAGGCAUAGUCAAGGGAGCGGCGAAAGUCACACAAACCGG [C150U C169A U176C] | 0.0431
GUGCCUUGCGCCGGGAAACCACGCAAGGGAUGGUGUCAAAUUCGGCGAAACCUAAGCGCCCGCCCGGGCGUAUGGCAACGCCGAGCCAAGCUUCGGCGCCUGCGCCGAUGAAGGUGUAGAGACUAGACGGCACCCACCUAAGGCAAACGUUAUGGUGAAGGCAUAGUCAAGGGAGGGGCGAAAGUCACACAAACCGG [C150U C169A U176G] | 0.00623
GUGCCUUGCGCCGGGAAACCACGCAAGGGAUGGUGUCAAAUUCGGCGAAACCUAAGCGCCCGCCCGGGCGUAUGGCAACGCCGAGCCAAGCUUCGGCGCCUGCGCCGAUGAAGGUGUAGAGACUAGACGGCACCCACCUAAGGCAAACGUUAUGGUGAAGGCAUAGUCGAGGGAGUGGCGAAAGUCACACAAACCGG [C150U C169G] | 0.172
GUGCCUUGCGCCGGGAAACCACGCAAGGGAUGGUGUCAAAUUCGGCGAAACCUAAGCGCCCGCCCGGGCGUAUGGCAACGCCGAGCCAAGCUUCGGCGCCUGCGCCGAUGAAGGUGUAGAGACUAGACGGCACCCACCUAAGGCAAACGUUAUGGUGAAGGCAUAGUCGAGGGAGAGGCGAAAGUCACACAAACCGG [C150U C169G U176A] | 0.0516
GUGCCUUGCGCCGGGAAACCACGCAAGGGAUGGUGUCAAAUUCGGCGAAACCUAAGCGCCCGCCCGGGCGUAUGGCAACGCCGAGCCAAGCUUCGGCGCCUGCGCCGAUGAAGGUGUAGAGACUAGACGGCACCCACCUAAGGCAAACGUUAUGGUGAAGGCAUAGUCGAGGGAGCGGCGAAAGUCACACAAACCGG [C150U C169G U176C] | 0.0925
GUGCCUUGCGCCGGGAAACCACGCAAGGGAUGGUGUCAAAUUCGGCGAAACCUAAGCGCCCGCCCGGGCGUAUGGCAACGCCGAGCCAAGCUUCGGCGCCUGCGCCGAUGAAGGUGUAGAGACUAGACGGCACCCACCUAAGGCAAACGUUAUGGUGAAGGCAUAGUCGAGGGAGGGGCGAAAGUCACACAAACCGG [C150U C169G U176G] | 0.0074
GUGCCUUGCGCCGGGAAACCACGCAAGGGAUGGUGUCAAAUUCGGCGAAACCUAAGCGCCCGCCCGGGCGUAUGGCAACGCCGAGCCAAGCUUCGGCGCCUGCGCCGAUGAAGGUGUAGAGACUAGACGGCACCCACCUAAGGCAAACGUUAUGGUGAAGGCAUAGUCUAGGGAGUGGCGAAAGUCACACAAACCGG [C150U C169U] | 0.247
GUGCCUUGCGCCGGGAAACCACGCAAGGGAUGGUGUCAAAUUCGGCGAAACCUAAGCGCCCGCCCGGGCGUAUGGCAACGCCGAGCCAAGCUUCGGCGCCUGCGCCGAUGAAGGUGUAGAGACUAGACGGCACCCACCUAAGGCAAACGUUAUGGUGAAGGCAUAGUCUAGGGAGAGGCGAAAGUCACACAAACCGG [C150U C169U U176A] | 0.0877
